{"source": "patent US20210139964", "about": "“RNA TAGGING SYSTEM FOR VISUALIZATION OF SINGLE MRNA MOLECULES” (ALBERT EINSTEIN COLLEGE OF MEDICINE, published 2021)", "molecules": {"B1": {"name": "MS2 C-variant stem loop (ssRNA)", "RNA": "ACAUGAGGAUCACCCAUGU"}}, "key": {"[1]": {"target": "MS2 coat protein (literature) (Enterobacteria phage MS2) (UniProt P03612)", "sequence (P03612 2-130)": "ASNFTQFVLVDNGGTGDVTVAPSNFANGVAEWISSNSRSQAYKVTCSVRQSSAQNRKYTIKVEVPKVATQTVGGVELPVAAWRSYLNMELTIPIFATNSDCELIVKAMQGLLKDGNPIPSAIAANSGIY", "details": "CITED Lowary and Uhlenbeck 1987, cited from earlier work"}, "[2]": {"target": "MS2 coat protein (MCP) (Enterobacteria phage MS2, UniProt P03612 P03612:2-130)", "sequence (P03612 2-130, one chain of several)": "as the sequence (P03612 2-130) above", "assay": "EMSA; sub-nanomolar; exact value only in figure; about 10-fold tighter than wt (p109); 10 mM Tris, 100 mM NaCl, 0.1 mM EDTA, tRNA, heparin, room temperature, 3 h", "details": "tags: MBP-TEV N-terminal, C-terminal 6xHis (plasmid pET336, E. coli Rosetta2); chain copies: 2 (inferred); label: 5' fluorescein; hairpin", "protocol": "Design of a new MBS-MCP system faithfully recapitulating mRNA kinetics —We considered four variables that could influence the ability of the MS2 array to block degradation by […] when MCP is bound. First, the loop sequence can affect the affinity of MCP for the stem. […] The current MBSV5 and MBSORF versions have a U to C change in position −5 of all loops (FIG. 2A-C). We compared the high affinity C-variant loops to the wt-loops (FIG. 2D). The affinities of the MBS-MCP binding were analyzed by electrophoretic mobility shift assay (EMSA). As a control, we used the original loop sequence from the bacteriophage with a U or a C at position −5. In addition, C or U variants were generated for two MS2 loops (Loop1 and Loop2), each of them with a different stem sequence (FIG. 2D). Apparent equilibrium dissociation constants (Kd) were extracted from plots of MCP bound versus free (FIG. 2E-G).\nComplexes were monitored and quantified by EMSA as previously described (Chao et al., 2008). In brief, 100 pM RNAs were incubated at room temperature for three hours with 2 fold dilutions of MCP in 10 mM Tris, 100 mM NaCl, 0.1 mM EDTA, 0.01 mg/mL tRNA, […] heparin and 0.01% IGEPAL CA630. Complexes were then run using 5% native PAGE in 0.5×TBE and visualized using the Typhoon 9400 variable mode laser scanner (GE Healthcare)."}}, "note": "Where two headings read alike, the source gives them in different places."}
{"molecule": "MS2 C-variant operator loop (literature)", "values": [{"measurement": "Kd", "setting": "[1]; dissociation about 90 times slower than wt", "value": 1, "unit": "nM"}]}
{"molecule": "MS2 wt operator loop (literature)", "values": [{"measurement": "Kd", "setting": "[1]; Valegard et al.", "value": 10, "unit": "nM"}]}
{"molecule": "B1", "values": [{"measurement": "Kd", "setting": "[2]", "value": "< 1", "unit": "nM"}]}
